Experimental data published in patent US20230382970A1 (HANMI PHARM, published 2023).
Numbered stars: 1 amine (or outer) side, 2 acyl side, 3 side chain; on linkers, the order of the positions; unused ones are H or OH. Bridge positions count the residues as written; N and C are the ends. Square brackets hold non-standard residues; d marks the D form. Ends that are not written are not given here. * marks the point of attachment. HAY = 2-(4-hydroxyphenyl)acetic acid replacing N-terminal Tyr, O=C(Cc1ccc(O[*:3])cc1)[*:2]; Desaminotyrosyl = O=C(CCc1ccc(O)cc1)*; Nle = CCCC[C@H](N)C(=O)O; Aib = CC(C)(N)C(=O)O

B1: GLP-1/GIP dual agonist of SEQ ID NO: 31 (peptide)
peptide: [Desaminotyrosyl][Aib]EGTFTSDYSI[Aib]LDKIAQRAFVQWLIAGGPSSGAPPPSK
B2: GLP-1/GIP dual agonist of SEQ ID NO: 34 (peptide)
peptide: Y[Aib]EGTFTSDYSI[Aib]LDKQAARAFVQWLIAGGPSSGAPPPSC
B3: GLP-1/GIP dual agonist of SEQ ID NO: 44 (peptide)
peptide: [Desaminotyrosyl][Aib]EGTFISDYSIALE[Nle]QAQQDFVNWLLAGGPSSGAPPPSK
B4: GLP-1/GIP dual agonist of SEQ ID NO: 43 (peptide)
peptide: [Desaminotyrosyl][Aib]EGTFISDYSIALEAQAQQDFVNWLLAGGPSSGAPPPSK
B5: GLP-1/GIP dual agonist of SEQ ID NO: 30 (peptide)
peptide: Y[Aib]EGTFTSDYSI[Aib]LDKQAA[Aib]EFVNWLL[Aib]GHPSSGAPPPSC
B6: GLP-1/GIP dual agonist of SEQ ID NO: 38 (peptide)
peptide: Y[Aib]EGTFTSDYSI[Aib]LEKQAQQDFVNWLLAGGPSSGAPPPSC
B7: GLP-1/GIP dual agonist of SEQ ID NO: 36 (peptide)
peptide: Y[Aib]EGTFTSDYSI[Aib]LDKQAQQAFVQWLIAGGPSSGAPPPSC
B8: GLP-1/GIP dual agonist of SEQ ID NO: 29 (peptide)
peptide: Y[Aib]EGTFTSDYSI[Aib]LDKQAA[Aib]EFVNWLL[Aib]GGPSSGAPPPSC
B9: GLP-1/GIP dual agonist of SEQ ID NO: 42 (peptide)
peptide: [Desaminotyrosyl][Aib]EGTFTSDYSI[Aib]LD[Nle]QAA[Aib]AFVQWLIAGGPSSGAPPPSK
B10: GLP-1/GIP dual agonist of SEQ ID NO: 32 (peptide)
peptide: [HAY][Aib]EGTFTSDYSI[Aib]LDKIAQRAFVQWLIAGGPSSGAPPPSK
B11: GLP-1/GIP dual agonist of SEQ ID NO: 37 (peptide)
peptide: Y[Aib]EGTFTSDYSI[Aib]LDKQAQQ[Aib]FVQWLIAGGPSSGAPPPSC
B12: GLP-1/GIP dual agonist of SEQ ID NO: 27 (peptide)
peptide: Y[Aib]EGTFTSDYSIAMDAIAQQDFVNWLLAQRGKKSDWKHNITQC
B13: GLP-1/GIP dual agonist of SEQ ID NO: 41 (peptide)
peptide: [Desaminotyrosyl][Aib]EGTFTSDYSI[Aib]LDAQAA[Aib]AFVQWLIAGGPSSGAPPPSK
B14: GLP-1/GIP dual agonist of SEQ ID NO: 39 (peptide)
peptide: Y[Aib]EGTFTSDYSIALEKQAA[Aib]DFVNWLLAGGPSSGAPPPSC
B15: GLP-1/GIP dual agonist of SEQ ID NO: 40 (peptide)
peptide: Y[Aib]EGTFTSDYSIALEKQAQRDFVNWLLAGGPSSGAPPPSC
B16: GLP-1/GIP dual agonist of SEQ ID NO: 28 (peptide)
peptide: Y[Aib]EGTFTSDYSIALEKQAQQDFVNWLLAGGPSSGAPPPSC
B17: GLP-1/GIP dual agonist of SEQ ID NO: 35 (peptide)
peptide: Y[Aib]EGTFTSDYSI[Aib]LDKQHA[Aib]AFVQWLIAGGPSSGAPPPSC
B18: GLP-1/GIP dual agonist of SEQ ID NO: 4 (peptide)
peptide: Y[Aib]EGTFTSDYSKYLDEIRAKDFVQWLLDHHPSSGQPPPC
modifications: bridge 16-20

What was measured:
[1] = target: human GLP-1 receptor (human, UniProt P43220 24-463); experiment: cell-based or functional assay
[2] = target: T1, human GIP receptor (human, UniProt P48546 22-466); experiment: cell-based or functional assay
T1 sequence (looked up): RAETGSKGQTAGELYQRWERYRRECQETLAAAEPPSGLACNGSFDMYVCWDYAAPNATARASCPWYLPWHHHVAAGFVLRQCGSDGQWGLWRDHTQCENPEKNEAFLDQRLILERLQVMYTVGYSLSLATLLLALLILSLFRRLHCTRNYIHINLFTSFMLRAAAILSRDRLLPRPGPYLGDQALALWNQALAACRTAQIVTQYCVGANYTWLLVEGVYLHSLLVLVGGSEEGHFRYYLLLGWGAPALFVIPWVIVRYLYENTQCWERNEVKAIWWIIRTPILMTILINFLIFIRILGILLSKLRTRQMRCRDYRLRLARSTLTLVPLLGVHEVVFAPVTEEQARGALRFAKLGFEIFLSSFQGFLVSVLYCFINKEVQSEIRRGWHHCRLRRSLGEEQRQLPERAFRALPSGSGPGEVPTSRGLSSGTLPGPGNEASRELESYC

Binder	In vitro activity (%) compared to native-type peptide, vs human GLP-1 (cAMP EC50, human GLP-1 receptor-expressing CHO cells) [1]	In vitro activity (%) compared to native-type peptide, vs human GIP (cAMP EC50, human GIP receptor-expressing CHO cells) [2]
B1	93.3%	38.3%
B2	34.2%	63.4%
B3	1.4%	74.2%
B4	1.2%	109%
B5	1%	63.4%
B6	14.3%	216%
B7	79.9%	217%
B8	0.5%	96%
B9	69.5%	35.9%
B10	88.3%	20.1%
B11	45.2%	174%
B12	0.2%	55.5%
B13	117%	58.7%
B14	15.9%	144%
B15	97.7%	181%
B16	6.7%	146%
B17	9.6%	64.2%
B18	1.9%	18.5%
